The values that follow come from publication PMC8761896.

Assay [1] deals with VRC01gl Fab with G107aL. In words: dynamic light scattering.
In assay [2] the target is BG505-SOSIP (UniProt Q2N0S6).
The target of assay [3] is VRC01gl Fab with comL ('VQ' insertion at 103aL and 103bL, L104VL, E105DL). In words: dynamic light scattering.

By stoichiometry N is commonly meant the number of molecules, sites or subunits per partner or assembly. In assay [1], VRC01gl Fab with G107aL returned a stoichiometry N of 2.
Usually Kd stands for the equilibrium constant for the complex coming apart. A lower Kd goes with tighter binding. For orientation: koff means the first-order rate constant of dissociation. Read a low koff as slow dissociation. Usually kon stands for a measure of how fast the partners come together. A high value points to faster complex formation. Turning to N6 Fab L:H38Q, in assay [2], the Kd came to 0.0781 nM, the koff was 6.04e-06 s⁻¹ and the kon was determined as 76800 M⁻¹ s⁻¹.
For 3BNC131 Fab H:Q39L, in that order: 21.2 nM, 0.00095 s⁻¹ and 44800 M⁻¹ s⁻¹.
Turning to “VRC01gl Fab with comL ('VQ' insertion at 103aL and 103bL, L104VL, E105DL)”, the stoichiometry N in assay [3] stood at 4.
